The values below come from patent publication US20190352359A1 (IMMATICS BIOTECHNOLOGIES, published 2019).

The target in one assay is T1, HLA-A*24.
T1 construct: Monomers captured on streptavidin plates; also called peptide-receptive MHC molecules; MHC complexes
Put plainly: UV peptide-exchange ELISA (anti-b2m); yield grade ++++ = >75%. An excerpt:
(§1) Candidate peptides for T cell based therapies according to the present invention were further tested for their MHC binding capacity (affinity). The individual peptide-MHC complexes were produced by UV-ligand exchange, where a UV-sensitive peptide is cleaved upon UV-irradiation, and exchanged with the peptide of interest as analyzed. Only peptide candidates that can effectively bind and stabilize the peptide-receptive MHC molecules prevent dissociation of the MHC complexes. To determine the yield of the exchange reaction, an ELISA was performed based on the detection of the light chain (p2m) of stabilized MHC complexes. The assay was performed as generally described in Rodenko et al. (Rodenko et al., 2006)
(§2) 96 well MAXISorp plates (NUNC) were coated over night with 2 ug/ml streptavidin in PBS at room temperature, washed 4× and blocked for 1 h at 37° C. in 2% BSA containing blocking buffer. Refolded HLA-A*02:01/MLA-001 monomers served as standards, covering the range of 15-500 ng/ml. Peptide-MHC monomers of the UV-exchange reaction were diluted 100-fold in blocking buffer. Samples were incubated for 1 h at 37° C., washed four times, incubated with 2 ug/ml HRP conjugated anti-β2m for 1h at 37° C., washed again and detected with TMB solution that is stopped with […]. Absorption was measured at 450 nm. Candidate peptides that show a high exchange yield (preferably higher than 50%, most preferred higher than 75%) are generally preferred for a generation and production of antibodies or fragments thereof, and/or T cell receptors or fragments thereof, as they show sufficient avidity to the MHC molecules and prevent dissociation of the MHC complexes.
LQPQPQLFFSF (also called LQPQPQLFFSF) [POT-002] displayed a peptide exchange yield greater than 75%.

In the case of SYLENSASW (also called SYLENSASW) [DLX5-003], the peptide exchange yield was greater than 75%.

In turn, TYINSLAIL (also called TYINSLAIL) [TGM4-003] returned a peptide exchange yield greater than 75%.

Take SYATPVDLW (also called SYATPVDLW) [CDK6-007]: the peptide exchange yield was greater than 75%.

Take TYVPSTFLV (also called TYVPSTFLV) [GABRP-005]: the peptide exchange yield was greater than 75%.

In turn, VYAVSSDRF (also called VYAVSSDRF) [DCX-001] came in with a peptide exchange yield greater than 75%.

For the molecule LYGFFFKI (also called LYGFFFKI) [BTBD16-002], the peptide exchange yield is greater than 75%.

Consider KYKDHFTEI (also called KYKDHFTEI) [MAGEB1-001], for which the peptide exchange yield is greater than 75%.

On to VFPLVTPLL (also called VFPLVTPLL) [PTP-042], for which the peptide exchange yield is greater than 75%.

AWSPPATLFLF (also called AWSPPATLFLF) [LOXL4-003] yielded a peptide exchange yield greater than 75%.

VYDSIWCNM (also called VYDSIWCNM) [SCGB2A1-001] displayed a peptide exchange yield greater than 75%.

With RYSPVKDAW (also called RYSPVKDAW) [KLHDC7B-006], the peptide exchange yield was greater than 75%.

The molecule IYFATQVVF (also called IYFATQVVF) [SLC45A3-004] returned a peptide exchange yield greater than 75%.

In turn, FYKLIQNGF (also called FYKLIQNGF) [FLT3-010] came in with a peptide exchange yield greater than 75%.

Take NYVLVPTMF (also called NYVLVPTMF) [CAPN6-003]: the peptide exchange yield was greater than 75%.

For YTIERYFTL (also called YTIERYFTL) [GABRP-007], the peptide exchange yield was greater than 75%.

KYLSIPTVFF (also called KYLSIPTVFF) [UGT1A3-002] yielded a peptide exchange yield greater than 75%.

VYKEDLPQL (also called VYKEDLPQL) [EML-002] had a peptide exchange yield greater than 75%.

In the case of VYIVPVIVL (also called VYIVPVIVL) [OXTR-002], the peptide exchange yield was greater than 75%.

As for IYKDYYRYNF (also called IYKDYYRYNF) [PLA2G2D-001], the peptide exchange yield was greater than 75%.

The molecule NYPEGAAYEF (also called NYPEGAAYEF) [ESR1-008] registered a peptide exchange yield greater than 75%.

With IYIYPFAHW (also called IYIYPFAHW) [NPFFR2-002], the peptide exchange yield is greater than 75%.

YFCSTKGQLF (also called YFCSTKGQLF) [FCRL2-004] returned a peptide exchange yield greater than 75%.

YQSRDYYNF (also called YQSRDYYNF) [AR-002]: the peptide exchange yield is greater than 75%.

Take GYFGNPQKF (also called GYFGNPQKF) [LAMA3-002]: the peptide exchange yield is greater than 75%.

FYHEDMPLW (also called FYHEDMPLW) [FCRL5-004] showed a peptide exchange yield greater than 75%.

Molecule QYLSIAERAEF (also called QYLSIAERAEF) [MSX-001] gave a peptide exchange yield greater than 75%.

As for TYVPSTFLVVL (also called TYVPSTFLVVL) [GABRP-006], the peptide exchange yield was greater than 75%.

LYAFLGSHF (also called LYAFLGSHF) [KISS1R-003]: the peptide exchange yield was greater than 75%.

On to TYSKTIALYGF (also called TYSKTIALYGF) [BTBD16-004], for which the peptide exchange yield was greater than 75%.

The molecule RYLPNPSLNAF (also called RYLPNPSLNAF) [CYP1A1-002] returned a peptide exchange yield greater than 75%.

With SYLWTDNLQEF (also called SYLWTDNLQEF) [DNAH17-003], the peptide exchange yield is greater than 75%.

As to RYTGQWSEW (also called RYTGQWSEW) [IL9R-001], the peptide exchange yield is greater than 75%.

RYFDENIQKF (also called RYFDENIQKF) [HEPHL-004] came in with a peptide exchange yield greater than 75%.

Molecule NYTRLVLQF (also called NYTRLVLQF) [GABRP-004] yielded a peptide exchange yield greater than 75%.

With SYLPTAERL (also called SYLPTAERL) [SYT12-001], the peptide exchange yield is greater than 75%.

Consider VLQGEFFLF (also called VLQGEFFLF) [KBTBD8-005], for which the peptide exchange yield is greater than 75%.

The molecule RWLDGSPVTL (also called RWLDGSPVTL) [CLEC17-005] gave a peptide exchange yield greater than 75%.

Turning to IGLSVVHRF (also called IGLSVVHRF) [OR51E2-003], the peptide exchange yield is greater than 75%.

Turning to PYFSPSASF (also called PYFSPSASF) [SPER-001], the peptide exchange yield is greater than 75%.

In turn, AYLKLLPMF (also called AYLKLLPMF) [SLC5A4-001] showed a peptide exchange yield greater than 75%.

SWHKATFLF (also called SWHKATFLF) [COL24-002]: the peptide exchange yield was greater than 75%.

Regarding KWFDSHIPRW (also called KWFDSHIPRW) [ERV-002], the peptide exchange yield was greater than 75%.

On to IYYSHENLI (also called IYYSHENLI) [F5-005], for which the peptide exchange yield was greater than 75%.

For LYIDKGQYL (also called LYIDKGQYL) [HMCN1-011], the peptide exchange yield was greater than 75%.

A further assay addresses T1, HLA-A*24. Put plainly: UV peptide-exchange ELISA (anti-b2m); yield grade ++ = >20%.
Description: as §1, §2
The molecule IMQGFIRAF (also called IMQGFIRAF) [PAE-002] came in with a peptide exchange yield of 20 to 50%.

Consider VWSCEGCKAF (also called VWSCEGCKAF) [ESR-001], for which the peptide exchange yield was in the range of 20 to 50%.

Regarding IRPDYSFQF (also called IRPDYSFQF) [TRDV3-001], the peptide exchange yield was in the range of 20 to 50%.

As for RRYFGEKVAL (also called RRYFGEKVAL) [ANO7-005], the peptide exchange yield was in the range of 20 to 50%.
